Experiment [1] addresses human HER3 on human cancer cells (human) (UniProt P21860).
For experiment [2] the target is unchanged. This is another data set of the same source.
Experiment [3] shares this target. The source holds these as a separate data set.
Experiment [4] shares this target. The source holds these as a separate data set.
Experiment [5] shares this target. This is another data set of the same source.
The target is the same in experiment [6]. The source holds these as a separate data set.
Experiment [7] has the same target. This is another data set of the same source.
Experiment [8] has the same target. This is another data set of the same source.
The target is the same in experiment [9]. This is another data set of the same source.
Experiment [10] has the same target. The source holds these as a separate data set.
Experiment [11] shares this target. The source holds these as a separate data set.
The target is the same in experiment [12]. The experiment is described as follows: cell-based or functional assay.

In experiment [1], “AMG anti-HER3 monoclonal antibody (U1-59)” showed an IC50; suppression of HRG-induced pHER3 (pHER3 ELISA), MCF-7 cells of 33 ng/ml and a Maximum inhibition %; suppression of HRG-induced pHER3 (pHER3 ELISA), MCF-7 cells of 77%. In [2], this substance registered an IC50; growth suppression (CellTiter-Glo, 6 days), MDA-MB-175 cells of 0.99 µg/mL and a Maximum inhibition %; growth suppression (CellTiter-Glo, 6 days), MDA-MB-175 cells of 39%. Besides, the IC50; growth suppression (CellTiter-Glo, 6 days), HMCB melanoma cells in experiment [3] was 1.73 µg/mL. Also, in experiment [4], the IC50; suppression of pHER3 (pHER3 ELISA), HCC827 cells is 23 ng/ml and the Maximum inhibition %; suppression of pHER3 (pHER3 ELISA), HCC827 cells came out at 41%. In experiment [5], the IC50; suppression of pHER3 (pHER3 ELISA), EGFR-TKI (gefitinib)-resistant HCC827 cells was found to be 31 ng/ml and the Maximum inhibition %; suppression of pHER3 (pHER3 ELISA), EGFR-TKI (gefitinib)-resistant HCC827 cells was found to be 24%. In experiment [6], this substance returned an IC50; suppression of pHER3 (pHER3 ELISA), MKN45 cells of 16.1 ng/ml and a Maximum inhibition %; suppression of pHER3 (pHER3 ELISA), MKN45 cells of 58%. In experiment [7], this substance came in with an IC50; suppression of pHER3 (pHER3 ELISA), Kato III cells of 9.6 ng/ml and a Maximum inhibition %; suppression of pHER3 (pHER3 ELISA), Kato III cells of 62%. In addition, in experiment [8], the IC50; suppression of pHER3 (pHER3 ELISA), BT-474 cells is greater than 10 µg/ml. In [9], this substance gave an IC50; suppression of pAKT (Meso-Scale Discovery assay), MKN45 cells of 15.8 ng/ml and a Maximum inhibition %; suppression of pAKT (Meso-Scale Discovery assay), MKN45 cells of 38%. Besides, in experiment [10], the IC50; suppression of pAKT (Meso-Scale Discovery assay), Kato III cells turned out to be 6.2 ng/ml and the Maximum inhibition %; suppression of pAKT (Meso-Scale Discovery assay), Kato III cells came to 22%. In [11], this substance showed an IC50; suppression of pAKT (Meso-Scale Discovery assay), BT-474 cells greater than 10 µg/ml and a Max inhibition%; suppression of pAKT (Meso-Scale Discovery assay), BT-474 cells of 1%. Moreover, in experiment [12], the fold decrease in pHER3 ELISA in HCC827 cells; potency against 2C2 stood at 10 fold and the pHER3 ELISA in Kato III cells, maximal pHER3 suppression amounted to 60%.

Source of the values: patent publication US20160237162A1.
